Laboratory results reported in patent US20240082414A1 (Eli Lilly, published 2024).
Read-outs that look alike come from different tables or passages of the source.

Columns and labels:
[1] = target: TNFα expressed on human monocyte-derived dendritic cells (human, UniProt P01375 1-233); assay: cell-based or functional assay
[2] = target: membrane human TNFα (non-cleavable TNFα construct stably transfected into CHO cells) (human, UniProt P01375 1-233); assay: cell-based or functional assay
[3] = target: T1, human TNFα (recombinant, soluble) (human, UniProt P01375 77-233); assay: cell-based or functional assay
[4] = target: T1, human TNFα (recombinant, soluble); assay: antigen-down ELISA, plate coated with human TNFα
Description: (§1) Example 2a. […] Briefly, 384-well high binding plates (Greiner Bio-one #781061) were coated with 20 μL per well of 1 μg/mL of human TNFα (Syngene), 2 μg/mL of rhesus macaque TNFα (R&D Systems, Cat# 1070-RM), or 2 μg/mL of canine TNFα (R&D Systems, Cat# 1507-CT/CF) diluted in carbonate buffer pH 9.3 (0.015 M Na₂CO₃ and 0.035 M NaHCO₃) and stored at 4° C. overnight. […] The plates were incubated at 37° C. for 90 min, then washed three times in PBS/0.1% Tween. 20 μL of secondary antibody reagent goat-anti-human-kappa-AP (Southern Biotech, Cat# 2060-04) with 1:1500 dilution was added to the plate and incubated for 45 minutes at 37° C. Plates were washed 3 times as above, and 20 μL of alkaline phosphatase substrate solution diluted to 1:35 in molecular grade water was added to every well. Once the color developed (approximately 15-30 min), plates were read at 560 nm OD on a Molecular Device Spectramax plate reader and data was acquired using Softmax Pro 4.7 software. Data analysis was performed in GraphPad Prism.

[5] = target: T2, canine TNFα (canine, UniProt P51742 77-233); assay: antigen-down ELISA, plate coated with canine TNFα
T2 construct: Bought protein; also called Canine TNFα (R&D Systems, Cat# 1507-CT/CF)
Description: as §1

[6] = target: T3, rhesus macaque TNFα (rhesus macaque, UniProt P48094 77-233); assay: antigen-down ELISA, plate coated with rhesus macaque TNFα
T3 construct: Bought protein; also called rhesus macaque monkey TNFα (R&D Systems, Cat# 1070-RM)
Description: as §1

[7] = target: T1, human TNFα (recombinant, soluble); assay: cell-based or functional assay; remark: listed apart in the source
[8] = target: T1, human TNFα (recombinant, soluble); assay: antigen-down ELISA, plate coated with human TNFα; remark: listed apart in the source
Description: as §1

T1 sequence (P01375 77-233 limits assumed): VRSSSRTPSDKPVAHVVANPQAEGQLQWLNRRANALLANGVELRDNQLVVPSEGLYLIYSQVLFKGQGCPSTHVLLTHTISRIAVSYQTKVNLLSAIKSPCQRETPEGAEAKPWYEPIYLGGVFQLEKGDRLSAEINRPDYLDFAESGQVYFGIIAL
T2 sequence (P51742 77-233 limits assumed): as the sequence (P01375 77-233 limits assumed) above, with R2K, Q21E, N30S, R44T, V49I, E53D, I83F, A109T, R138L, D140N counted along it
Sequence of TNFα expressed on human monocyte-derived dendritic cells (P01375 whole entry): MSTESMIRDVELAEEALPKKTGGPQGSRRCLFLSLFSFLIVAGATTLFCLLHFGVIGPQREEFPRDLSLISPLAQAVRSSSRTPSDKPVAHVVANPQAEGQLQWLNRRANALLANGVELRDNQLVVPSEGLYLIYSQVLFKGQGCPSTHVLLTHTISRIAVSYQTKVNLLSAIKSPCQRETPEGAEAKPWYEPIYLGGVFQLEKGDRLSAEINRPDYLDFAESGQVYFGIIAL
T3 sequence (P48094 77-233 limits assumed): as the sequence (P01375 77-233 limits assumed) above, with R44T, T72N, R138L counted along it

Immature Dendritic Cell Internalization Index [1] | Mature Dendritic Cell Internalization Index [1] | Inhibition of membrane human TNFα-induced apoptosis IC50 (L929 cells) [2] [µg/mL] | Inhibition of soluble human TNFα induced apoptosis IC50 (L929 cells) [3] [µg/mL] | EC50 [4] [µg/mL] | EC50 [5] [µg/mL] | EC50 [6] [µg/mL] | Inhibition of soluble human TNFα induced apoptosis IC50 (L929 cells) [7] [µg/mL] | EC50 [8] [µg/mL] | Binder
20 | 35.2 | 0.15 | 0.19 | 0.216 | 0.24 | 0.141 |  |  | anti-human TNFα antibody Ab3 (antibody, human IgG1, kappa, V domains shown, Human IgG1; expressed in CHO cells) VH: QVQLVQSGAEVKKPGASVKVSCKASGYTFTGYYMHWVRQAPGQGLEWMGWINPYTGGTKYAQKFQGRVTMTRDTSISTAYMELSRLRSDDTAVYYCARDLYGSSNYGMDVWGQGTTVTVSS VL: not shown
19.4 | 26.7 |  | 0.16 | 0.223 | 0.22 | 0.156 | 0.089 | 0.28 | anti-human TNFα antibody Ab1 (antibody, human IgG1, kappa, V domains shown, Human IgG1 with engineered cysteines at heavy chain positions 124 and 378 (EU numbering); expressed in CHO cells; also called anti-human TNFα Ab1; unconjugated anti-human TNFα Ab1) VH: QVQLVQSGAEVKKPGASVKVSCKASGYTFTGYYIHWVRQAPGQGLEWMGWINPYTGGTNYAQKFQGRVTMTRDTSISTAYMELSRLRSDDTAVYYCARDLYGSSNYGGDVWGQGTTVTVSS VL: not shown
54.6 | 52.7 | 0.2 | 0.22 | 0.22 | 0.176 | 0.161 |  |  | anti-human TNFα antibody Ab5 (antibody, human IgG1, kappa, V domains shown, Human IgG1; expressed in CHO cells) VH: QVQLVQSGAEVKKPGASVKVSCKASGYTFTGYYMHWVRQAPGQGLEWMGWINPYTGGTKYAQKFQGRVTMTRDTSISTAYMELSRLRSDDTAVYYCARDLYGSSNYGMDVWGQGTTVTVSS VL: DIQMTQSPSSLSASVGDRVTITCQASQGIRNYLNWYQQKPGKAPKLLIYDASNLETGVPSRFSGSGSGTDFTFTISSLQPEDIATYYCQQYDKLPLTFGGGTKVEIKR
21.9 | 38.3 | 0.13 | 0.13 | 0.222 | 0.24 | 0.162 |  |  | anti-human TNFα antibody Ab2 (antibody, human IgG1, kappa, V domains shown, Human IgG1; expressed in CHO cells) VH: QVQLVQSGAEVKKPGASVKVSCKASGYTFTGYYIHWVRQAPGQGLEWMGWINPYTGGTNYAQKFQGRVTMTRDTSISTAYMELSRLRSDDTAVYYCARDLYGSSNYGMDVWGQGTTVTVSS VL: not shown
33.6 | 43.1 | 0.13 | 0.19 | 0.213 | 0.231 | 0.144 |  |  | anti-human TNFα antibody Ab4 (antibody, human IgG1, kappa, V domains shown, Human IgG1; expressed in CHO cells) VH: QVQLVQSGAEVKKPGASVKVSCKASGYTFTGYYMHWVRQAPGQGLEWMGWINPYTGGTKYAQKFQGRVTMTRDTSISTAYMELSRLRSDDTAVYYCARDLYGSSNYGMDVWGQGTTVTVSS VL: not shown
 |  |  |  | 0.131 | 0.162 | 0.115 |  |  | anti-human TNFα antibody Ab6 (antibody, human IgG1, kappa, V domains shown, Human IgG1) VH: QVQLVQSGAEVKKPGASVKVSCKASGYTFTGYYIHWVRQAPGQGLEWMGWINPYTGGTNYAQKFQGRVTMTRDTSISTAYMELSRLRSDDTAVYYCARDIYGSSNYGGDVWGQGTTVTVSS VL: not shown
